# Test results published in article PMC2827208.
# Columns and labels:
# R838S RetGC1 (human) = R838S RetGC1 (human) (UniProt Q02846); test: co-localisation of GCAP1-GFP with RetGC1 in co-transfected cells
# [1] = biological target: wild type recombinant human RetGC1 (human) (UniProt Q02846); test: as above
# [2] = biological target: dsRed-tagged RetGC1 (human) (UniProt Q02846); test: ratio of GFP and dsRed tag fluorescence in co-transfected cells
substance,measurement,setting,value
GFP-tagged bovine GCAP1 (from UniProt P46065 1-205) (natural protein),cell:nucleus GCAP1-GFP fluorescence intensity ratio,R838S RetGC1 (human),9.3
same,cell:nucleus GCAP1-GFP fluorescence intensity ratio,[1],10.6
same,stoichiometry N (GCAP1 per RetGC1),[2],0.86
same,stoichiometry N,[2]; scale: molar ratio between the two proteins at saturation,1.01
